Positions count from the first letter of the chain named. Like-named read-outs stand apart in the source and are kept apart here. Blank lines part the entries; values can stand above or below the binder they belong to.
Tests used:
[1] = target: T1, biotin labeled soluble human SIRPα v1 ECD recombinant protein (human, UniProt P78324 31-373, biotin labeled); assay: competitive ELISA; competitor 29-AM4-5
T1 construct: extracellular domain
Experimental: (§1) Competitive ELISA assay was used for epitope binning of 9 functional antibodies. Briefly excessive competitor antibody and biotin labeled soluble human SIRPα v1 ECD recombinant protein were co-incubated with ELISA microplate coated antibody. After washing, HRP-SA was added and incubated at 37° C. for 1 hour. Then, […] of TMB solution (Biotechnology) was added. After incubation for 15 minutes at room temperature, the reaction was stopped by the addition of […] of 1N HCl. OD 450 nm was read. Competition ratio was calculated. The antibodies that can compete each other for binding to SIRPα have the similar binding epitope.

[2] = target: T1, biotin labeled soluble human SIRPα v1 …; assay: competitive ELISA; competitor 050
Experimental: as §1

[3] = target: T1, biotin labeled soluble human SIRPα v1 …; assay: competitive ELISA; competitor 022
Experimental: as §1

[4] = target: T1, biotin labeled soluble human SIRPα v1 …; assay: competitive ELISA; competitor 002
Experimental: as §1

[5] = target: T1, biotin labeled soluble human SIRPα v1 …; assay: competitive ELISA; competitor KWAR23
Experimental: as §1

[6] = target: T1, biotin labeled soluble human SIRPα v1 …; assay: competitive ELISA; competitor 074
Experimental: as §1

[7] = target: T1, biotin labeled soluble human SIRPα v1 …; assay: competitive ELISA; competitor HEFLB
Experimental: as §1

[8] = target: T2, full length cyno SIRPα stably expressed on CHOK1 cells (cynomolgus monkey, UniProt A0A2K5VYQ9 31-507); assay: FACS on CHOK1 cells
T2 construct: whole, on cells; also called CHOK1-cyno SIRPα-2A2 cells; CHOK1-cyno SIRPα
T2 sequence: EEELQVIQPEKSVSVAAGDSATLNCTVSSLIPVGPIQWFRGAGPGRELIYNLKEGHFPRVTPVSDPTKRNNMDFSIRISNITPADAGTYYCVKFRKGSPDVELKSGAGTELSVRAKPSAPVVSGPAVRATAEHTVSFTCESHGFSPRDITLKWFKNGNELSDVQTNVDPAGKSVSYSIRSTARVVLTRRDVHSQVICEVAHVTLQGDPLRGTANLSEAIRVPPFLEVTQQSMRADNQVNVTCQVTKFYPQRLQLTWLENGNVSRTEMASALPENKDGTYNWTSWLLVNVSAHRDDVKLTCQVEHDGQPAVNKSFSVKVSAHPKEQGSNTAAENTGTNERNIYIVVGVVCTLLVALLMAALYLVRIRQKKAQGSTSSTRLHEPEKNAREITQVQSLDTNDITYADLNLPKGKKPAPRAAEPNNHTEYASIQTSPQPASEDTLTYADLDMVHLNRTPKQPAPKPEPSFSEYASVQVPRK
Experimental: (§2) Species cross reactivity of the purified hybridoma antibodies against human, cyno and mouse SIRPα was determined by FACS assay using CHOK1-human SIRPα v1-1B4 cells, CHOK1-cyno SIRPα-2A2 cells, and CHOK1-C57BL/6 mouse SIRPα-2.22 cells, which stably expressing SIRPα protein. Briefly the antibodies were incubated with 2×10⁵ target cells at 4° C. for 1 hour. After washing, fluorescence labeled anti-mouse or anti-human IgG 2nd antibody (Life Technologies) was added and incubated at 4° C. for 1 hour. Geometric median fluorescence intensity was detected and EC₅₀ was calculated. In particular, it is noted, in contrast to the other antibodies tested in the same experiment, 060 cannot bind with cyno SIRPα and 035 has cross reactivity against C57BL/6 mouse SIRPα.

[9] = target: T3, full length human SIRPα v1 stably expressed on CHOK1 cells (human, UniProt P78324 31-504); assay: FACS on CHOK1 cells
T3 construct: whole, on cells; also called CHOK1-human SIRPα v1-1B4 cells; CHOK1-human SIRPα v1
Experimental: as §2

[10] = target: T4, full length C57BL/6 mouse SIRPα stably expressed on CHOK1 cells (mouse (C57BL/6), UniProt P97797 32-513); assay: FACS on CHOK1 cells
T4 construct: whole, on cells; also called CHOK1-C57BL/6 mouse SIRPα-2.22 cells
T4 sequence (looked up): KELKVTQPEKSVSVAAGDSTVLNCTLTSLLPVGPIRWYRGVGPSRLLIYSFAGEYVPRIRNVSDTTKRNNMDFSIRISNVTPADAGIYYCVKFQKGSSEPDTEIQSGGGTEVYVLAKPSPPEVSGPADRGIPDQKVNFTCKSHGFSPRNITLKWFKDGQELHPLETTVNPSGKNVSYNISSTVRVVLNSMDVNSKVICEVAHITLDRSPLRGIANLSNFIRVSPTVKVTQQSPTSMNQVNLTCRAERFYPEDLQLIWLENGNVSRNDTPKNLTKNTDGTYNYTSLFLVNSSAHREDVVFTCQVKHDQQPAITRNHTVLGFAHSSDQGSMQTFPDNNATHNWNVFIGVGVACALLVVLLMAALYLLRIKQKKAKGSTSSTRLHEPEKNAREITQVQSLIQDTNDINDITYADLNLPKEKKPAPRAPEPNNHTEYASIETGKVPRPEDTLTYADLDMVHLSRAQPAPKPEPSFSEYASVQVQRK
Experimental: as §2

[11] = target: T1, biotin labeled soluble human SIRPα v1 …; assay: competitive ELISA; competitor 060
Experimental: as §1

[12] = target: T5, Fc tagged human SIRPα v2 ECD recombinant protein (human); assay: ELISA
T5 construct: range 1-369; cloned range M1-R369 includes the signal peptide; also called hSIRPα V2
Experimental: (§3) Binding specificity of the purified hybridoma antibodies against SIRP family members was detected by ELISA assay using recombinant proteins of Fc tagged human SIRPα v1 ECD, human SIRPα v2 ECD, human SIRPβ ECD and human SIRPγ ECD. Briefly the antibodies were incubated with ELISA microplate coated antigens at 37° C. for 1 hour. After washing, horseradish peroxidase (HRP) labeled anti-mouse or anti-human IgG 2nd Ab (Sigma) was added and incubated at 37° C. for 1 hour. Then, 100 μl/well of TMB solution (Biotechnology) was added. After incubation for 15 minutes at room temperature, the reaction was stopped by the addition of 50 μl of 1N HCl. OD 450 nm was read and EC₅₀ was calculated. Other than 060 and HEFLB, all of the antibodies as tested can bind with both human SIRPα v1 and SIRPα v2. 060 and HEFLB can bind with human SIRPα v1 but not v2. Other than 055, all of the antibodies as tested can bind with human SIRPβ. In comparison with other known anti-SIRPα antibodies, only 022, 035 and 050 can bind with human SIRPγ weakly.

[13] = target: T6, Fc tagged human SIRPα v1 ECD recombinant protein (human, UniProt P78324 31-370); assay: ELISA
T6 construct: range 1-370; cloned range M1-R370 includes the signal peptide; also called hSIRPα V1; not shown: human IgG Fc region (hFc) of the pCPC vector
Experimental: as §3

[14] = target: T1, biotin labeled soluble human SIRPα v1 …; assay: competitive ELISA; competitor 001
Experimental: as §1

[15] = target: T1, biotin labeled soluble human SIRPα v1 …; assay: competitive ELISA; competitor 035
Experimental: as §1

[16] = target: T1, biotin labeled soluble human SIRPα v1 …; assay: competitive ELISA; competitor 032
Experimental: as §1

[17] = target: T1, biotin labeled soluble human SIRPα v1 …; assay: competitive ELISA; competitor 055
Experimental: as §1

[18] = target: T5, Fc tagged human SIRPα v2 ECD …; assay: ELISA; remark: listed apart in the source
[19] = target: T6, Fc tagged human SIRPα v1 ECD …; assay: ELISA; remark: listed apart in the source
[20] = target: T7, Fc tagged human SIRPβ ECD recombinant protein (human, UniProt O00241 30-371); assay: ELISA
T7 construct: range 1-371; cloned range includes the signal peptide; also called hSIRPβ; not shown: human IgG Fc region (hFc) of the pCPC vector

[21] = target: T8, 6×His tagged human SIRPα v8 ECD recombinant protein (human); assay: ELISA
T8 construct: extracellular domain; bought; also called hSIRPα V8

[22] = target: T9, Fc tagged human SIRPγ ECD recombinant protein (human, UniProt Q9P1W8 29-360); assay: ELISA
T9 construct: range 1-360; cloned range includes the signal peptide; also called hSIRPγ; not shown: human IgG Fc region (hFc) of the pCPC vector

[23] = target: T10, 6×His tagged human SIRPα v1 ECD recombinant protein (human, UniProt P78324 31-373); assay: SPR (Biacore)
T10 construct: extracellular domain; bought; also called hSIRPα V1 (SPR antigen)

[24] = target: T10, 6×His tagged human SIRPα v1 ECD …; assay: SPR (Biacore), antibody captured
Experimental: Anti-SIRPα chimeric antibodies were characterized for binding affinity against human SIRPα v1, human SIRPα v2 and C57BL/6 mouse SIRPα using Biacore (GE). Briefly the antibodies to be tested were captured to CM5 chip (GE) using Human Antibody Capture Kit (GE). The antigens of 6×His tagged human SIRPα v1, human SIRPα v2 and C57BL/6 mouse SIRPα ECD recombinant proteins were serially diluted for multiple doses and injected at 30 μl/min for 180 s. Buffer flow was maintained for dissociation of 400 s. 3 M MgCl₂ was used for chip regeneration. The association and dissociation curves were fit with 1:1 binding model, and the Ka/Kd/KD values for each antibody were calculated.

[25] = target: T1, biotin labeled soluble human SIRPα v1 …; assay: competitive ELISA, hSIRPα/CD47 blocking
[26] = target: T11, 6×His tagged C57BL/6 mouse SIRPα ECD recombinant protein (mouse (C57BL/6), UniProt P97797 32-373); assay: ELISA on coated mouse SIRPα (C57BL/6) ECD [Continued) F]
T11 construct: extracellular domain; bought; also called mSIRPα (C57BL/6); mouse SIRPα (C57BL/6) ECD
T11 sequence: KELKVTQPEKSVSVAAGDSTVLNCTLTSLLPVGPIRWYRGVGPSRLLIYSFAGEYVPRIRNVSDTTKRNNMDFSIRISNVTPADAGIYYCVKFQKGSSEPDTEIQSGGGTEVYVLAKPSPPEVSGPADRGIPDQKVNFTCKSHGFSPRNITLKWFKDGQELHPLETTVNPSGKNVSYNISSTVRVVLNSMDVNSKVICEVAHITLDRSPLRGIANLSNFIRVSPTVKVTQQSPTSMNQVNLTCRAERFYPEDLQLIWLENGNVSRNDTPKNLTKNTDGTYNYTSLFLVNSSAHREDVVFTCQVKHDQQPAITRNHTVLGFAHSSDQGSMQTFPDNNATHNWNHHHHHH

T1 sequence (P78324 31-373): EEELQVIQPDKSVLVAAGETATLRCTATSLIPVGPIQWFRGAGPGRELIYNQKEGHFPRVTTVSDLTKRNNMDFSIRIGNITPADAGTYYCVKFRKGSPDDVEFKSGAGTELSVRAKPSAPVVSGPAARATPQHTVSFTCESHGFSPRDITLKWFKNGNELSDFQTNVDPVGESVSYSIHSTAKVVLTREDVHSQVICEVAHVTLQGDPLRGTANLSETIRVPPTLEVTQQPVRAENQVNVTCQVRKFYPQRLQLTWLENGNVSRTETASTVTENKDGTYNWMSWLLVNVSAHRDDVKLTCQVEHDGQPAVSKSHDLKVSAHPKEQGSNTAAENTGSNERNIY
T10 sequence (P78324 other isoform, or with tags, fused parts or gaps): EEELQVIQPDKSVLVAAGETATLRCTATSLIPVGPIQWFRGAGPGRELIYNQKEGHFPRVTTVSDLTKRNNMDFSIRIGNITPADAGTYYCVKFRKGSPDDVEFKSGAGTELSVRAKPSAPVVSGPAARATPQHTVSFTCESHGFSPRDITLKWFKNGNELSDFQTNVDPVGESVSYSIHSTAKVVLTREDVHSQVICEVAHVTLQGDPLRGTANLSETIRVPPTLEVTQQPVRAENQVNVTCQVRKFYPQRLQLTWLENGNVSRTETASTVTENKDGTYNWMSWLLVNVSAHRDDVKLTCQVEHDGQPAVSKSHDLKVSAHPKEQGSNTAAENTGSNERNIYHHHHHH
T6 sequence (P78324 31-370 limits assumed): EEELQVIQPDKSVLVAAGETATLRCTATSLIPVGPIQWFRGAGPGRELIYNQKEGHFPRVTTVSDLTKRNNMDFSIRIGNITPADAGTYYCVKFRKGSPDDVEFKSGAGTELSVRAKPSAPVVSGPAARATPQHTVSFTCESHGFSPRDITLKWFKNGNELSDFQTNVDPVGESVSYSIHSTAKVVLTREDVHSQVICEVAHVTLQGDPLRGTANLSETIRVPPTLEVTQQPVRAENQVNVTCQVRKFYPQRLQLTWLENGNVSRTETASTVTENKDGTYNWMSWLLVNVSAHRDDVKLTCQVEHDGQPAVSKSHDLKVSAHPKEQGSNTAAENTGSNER
T9 sequence (Q9P1W8 29-360 limits assumed, form in doubt): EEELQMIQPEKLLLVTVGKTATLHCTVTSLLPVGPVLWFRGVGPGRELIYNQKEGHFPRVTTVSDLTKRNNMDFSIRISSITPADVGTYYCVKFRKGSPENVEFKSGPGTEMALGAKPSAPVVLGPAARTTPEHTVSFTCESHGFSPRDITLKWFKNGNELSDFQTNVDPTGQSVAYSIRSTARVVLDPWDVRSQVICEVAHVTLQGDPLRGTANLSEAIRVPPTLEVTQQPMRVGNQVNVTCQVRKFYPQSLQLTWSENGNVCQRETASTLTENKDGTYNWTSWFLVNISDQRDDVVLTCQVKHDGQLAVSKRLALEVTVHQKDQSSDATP
T7 sequence (O00241 30-371 limits assumed, form in doubt): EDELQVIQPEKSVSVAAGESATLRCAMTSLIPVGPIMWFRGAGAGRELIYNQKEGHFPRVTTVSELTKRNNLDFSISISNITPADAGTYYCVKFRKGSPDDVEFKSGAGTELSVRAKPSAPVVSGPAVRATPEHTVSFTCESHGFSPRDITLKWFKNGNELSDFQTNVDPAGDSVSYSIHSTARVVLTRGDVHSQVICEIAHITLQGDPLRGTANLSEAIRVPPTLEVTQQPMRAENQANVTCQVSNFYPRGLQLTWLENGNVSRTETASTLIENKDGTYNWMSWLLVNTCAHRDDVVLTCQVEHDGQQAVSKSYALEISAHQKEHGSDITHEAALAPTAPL

- % Competition [1]: 14%
- % Competition [2]: 7%
- % Competition [3]: 2%
- % Competition [4]: -8%
- % Competition [5]: 45%
- % Competition [6]: 3%
- % Competition [7]: -10%
- MFI at 10 nM [8]: 4670 MFI
- EC50 [9]: 1.2 nM
- binding result [10]: no binding (tested: 100 nM)
- % Competition [11]: 8%
- EC50 [12]: 0.04 nM
- EC50 [13]: 0.04 nM
- % Competition [14]: -3%
- % Competition [15]: 8%
- % Competition [16]: -1%
- % Competition [17]: 91%
B1: Antibody 055 (hybridoma antibody) (antibody, V domains shown)
VH: EVKLVESEGGLVQPGDSMKLSCTASGFTFSDYFMTWIRQVPEKGLEWIANVNYDGRSTYYLDSLKSRFIISRDNANNILYLQMSSLKSEDTATYYCAREGSQTPLYAVDYWGQGTSVTVSS
VL: DIVMTQSQKFMSTTVGDRVNITCKASQNVGTAVAWYQQKPGQSPKLLIYLASNRYTGVPDRFTGSGSGTDFTLTVSDMRSEDLADYFCQQYSIYPFTFGSGTKLEIK
notes: mouse hybridoma antibody

- EC50 [18]: 0.16 nM
- EC50 [19]: 0.16 nM
- EC50 [20]: 0.2 nM
- EC50 [21]: 0.23 nM
- EC50 [22]: 6.24 nM
- Kd [23]: 1.64 nM
- Kd [24]: 1.64 nM
- koff [24]: 0.00017 s⁻¹
- kon [24]: 104000 M⁻¹ s⁻¹
- EC50 [8]: 0.29 nM
- EC50 [9]: 0.97 nM
- MFI at 2 ug/ml [10]: 549 MFI
- IC50 [25]: 1.74 nM
B2: humanized antibody hu035.02 (antibody, V domains shown)
VH: QIQLVQSGSELKKPGASVKVSCRARGYTLTDYAMNWVRQAPGQGLEWMGFINTYTGEPTYAQGFKGRFVFSLDTSVSTAYLQIGSLKAEDTAVYYCARTRGYYDFDGGAFDYWGQGTLVTVSS
VL: DIQMTQSPSSLSASVGDRVTITCRASQNVGTHLAWYQQKPGKAPKSLIYSASYRYIGVPSRFSGSGSGTDFTLTISSLQPEDFATYYCQQYNTYPLTFGQGTKLEIK

- EC50 [18]: 0.11 nM
- EC50 [19]: 0.13 nM
- EC50 [20]: 0.17 nM
- EC50 [21]: 0.23 nM
- EC50 [22]: 6.78 nM
- Kd [23]: 3.2 nM
- Kd [24]: 3.2 nM
- koff [24]: 0.000189 s⁻¹
- kon [24]: 59200 M⁻¹ s⁻¹
- EC50 [8]: 0.3 nM
- EC50 [9]: 1.46 nM
- MFI at 2 ug/ml [10]: 626 MFI
- EC50 (read off the curve) [26]: ~0.09 µg/mL
- IC50 [25]: 1.43 nM
B3: humanized antibody hu035.03 (antibody, V domains shown)
VH: B2 VH
VL: B2 VL with A43S, S46A, Y49F

Reference: US20210347908A1 (ELPISCIENCE SUZHOU BIOPHARMA, published 2021)
